Measured values taken from patent publication US20180236053A1 (CELLECTIS, published 2018).

How the values were obtained:
[1] = molecular target: CD38 antigen on the surface of cells (U266 CD38+, MOLP8, Daudi, T-ALL cell lines, activated T cells) (human, UniProt P28907 1-300); experiment: cell-based or functional assay
[2] = molecular target: T1, CD38-Fc protein (produced by LakePharma) (UniProt P28907 43-300, limits assumed); experiment: flow cytometry, CD38 Fc staining of CD38/TRAC double KO T cells transduced with rLV (FIG. 27C)
T1 construct: Staining reagent for CAR detection by flow cytometry; also called CD38-Fc fusion protein; not shown: Fc part
Protocol: The parameters are the following: T cells were activated by using Dynabeads CD3-CD28, the culture were made by using medium Xvivo+5% human serum heat inactivated+IL-2 20 ng/ml, a double KO (DKO) CD38-TRAC was performed by using a ratio of 2 μg TALEN mRNA per million of cells (5 million cells/cuvette); the transduction was performed by using rLV from Vectalys(France) at a MOI of 5.
The screening of the 4 CARs 25A10-v1, -v2, 28F5-v1 and -v2 after rLV transduction in DKO T cells has shown that all the CARs were expressed at the T cell surface with a high efficiency (>40%) and 3 of them above 80% (FIG. 27C). RQR8 expression was correlated with CAR expression (FIG. 27A). Most of the T cells were CD38 negative when T cells have been transduced by CD38 CARs (FIG. 27A). It is shown also that 60-85% of T cells endowed with the above 4 CARs were DKO TRAC/CD38 (FIG. 27B).

[3] = molecular target: T1, CD38-Fc protein (produced by LakePharma); experiment: flow cytometry, CD38-Fc fusion protein staining of purified CD38-deficient T cells transfected with CAR mRNA (FIG. 15)
Protocol: T cells were purified from buffy coat samples and activated using anti-CD3/CD28 coated beads and IL-2. CD38-1 TALEN mRNA was transfected in T cells at day 4 after activation, 6 days later CD38 negative cells were purified by using magnetic separation (Miltenyi). The day after, CAR mRNAs were transfected. The CAR expression and degranulation capacity of CART cells were assessed 24 hours after the transfection. CAR expression and cytotoxic capacity of CART cells were assessed 48 hours after the transfection.
All CARs were detected 24 h after transfection except the 25A10-V3 However, the latter expressed anti-CD38 CAR above the background. The 13F11-V2, 25A10-V1, 25A10-V2 and 28F5-V2 were highly expressed (more than 80%).

| ratio of degranulation against U266 CD38+ and U266 CD38- [1] | % of T cells stained by CD38-Fc (CAR expression) [2] | % of T cells stained by CD38-Fc (CAR expression) [3] | Binder |
| --- | --- | --- | --- |
| > 2 ratio |  |  | 13F11-V1 CAR (other) QIQLVQSGPELKKPGETVKISCKASGYTFKKYGMNWVKQAPGKGLKWMGWINTNTGEPTYAEEFKGRFAFSLETSASTAYLQINNLKNEDTATYFCARWYYGSTPSSYTMDYWGQGTSVTVSSGGGGSGGGGSGGGGSETTVTQSPASLSVATGEKVTIRCITSTDIDDDMNWYQQKPGEPPKVLISEGNTLRPGVPSRFSSSGYGTDFVFTIENTLSEDVADYYCLQSNNMPYTFGGGTKLEIKGLAVSTISSFFPPGYQIYIWAPLAGTCGVLLLSLVITLYCKRGRKKLLYIFKQPFMRPVQTTQEEDGCSCRFPEEEEGGCELRVKFSRSADAPAYQQGQNQLYNELNLGRREEYDVLDKRRGRDPEMGGKPRRKNPQEGLYNELQKDKMAEAYSEIGMKGERRRGKGHDGLYQGLSTATKDTYDALHMQALPPR |
| > 2 ratio | > 40% |  | 28F5-V1 CAR (other, Chimeric antigen receptor on T cells; signal peptide left out here) QIQLVQSGPELKKPGETVKISCKASGYTFTKYGMNWVKQTPGKGLKWMGWINTNSGEPTYAEEFKGRFAFSLETSASTAYLQINNLKNEDTATYFCARGAYYRYDGEVSYYAMDYWGQGTSVTVSSGGGGSGGGGSGGGGSQIILTQSPAIMSASLGERVTMTCTATSSLSSSYLHWYQQKPGSSPKLWIYSTSHLASGVPARFSGGGSGTSYSLTISSMEAEDAATYYCHQYHLSPYTFGGGTKLEIKGLAVSTISSFFPPGYQIYIWAPLAGTCGVLLLSLVITLYCKRGRKKLLYIFKQPFMRPVQTTQEEDGCSCRFPEEEEGGCELRVKFSRSADAPAYQQGQNQLYNELNLGRREEYDVLDKRRGRDPEMGGKPRRKNPQEGLYNELQKDKMAEAYSEIGMKGERRRGKGHDGLYQGLSTATKDTYDALHMQALPPR |
| > 2 ratio |  |  | GMB005-V1 CAR (other) EVQLLESGGGLVQPGGSLRLSCAVSGFTFNSFAMSWVRQAPGKGLEWVSAISGSGGGTYYADSVKGRFTISRDNSKNTLYLQMNSLRAEDTAVYFCAKDKILWFGEPVFDYWGQGTLVTVSSASGGGGSGGGGSGGGGSEIVLTQSPATLSLSPGERATLSCRASQSVSSYLAWYQQKPGQAPRLLIYDASNRATGIPARFSGSGSGTDFTLTISSLEPEDFAVYYCQQRSNWPPTFGQGTKVEIKGLAVSTISSFFPPGYQIYIWAPLAGTCGVLLLSLVITLYCKRGRKKLLYIFKQPFMRPVQTTQEEDGCSCRFPEEEEGGCELRVKFSRSADAPAYQQGQNQLYNELNLGRREEYDVLDKRRGRDPEMGGKPRRKNPQEGLYNELQKDKMAEAYSEIGMKGERRRGKGHDGLYQGLSTATKDTYDALHMQALPPR |
|  |  | > 80% | 13F11-V2 CAR (other, Chimeric antigen receptor on T cells; signal peptide left out here) QIQLVQSGPELKKPGETVKISCKASGYTFKKYGMNWVKQAPGKGLKWMGWINTNTGEPTYAEEFKGRFAFSLETSASTAYLQINNLKNEDTATYFCARWYYGSTPSSYTMDYWGQGTSVTVSSGGGGSGGGGSGGGGSETTVTQSPASLSVATGEKVTIRCITSTDIDDDMNWYQQKPGEPPKVLISEGNTLRPGVPSRFSSSGYGTDFVFTIENTLSEDVADYYCLQSNNMPYTFGGGTKLEIKTTTPAPRPPTPAPTIASQPLSLRPEACRPAAGGAVHTRGLDFACDIYIWAPLAGTCGVLLLSLVITLYCKRGRKKLLYIFKQPFMRPVQTTQEEDGCSCRFPEEEEGGCELRVKFSRSADAPAYQQGQNQLYNELNLGRREEYDVLDKRRGRDPEMGGKPRRKNPQEGLYNELQKDKMAEAYSEIGMKGERRRGKGHDGLYQGLSTATKDTYDALHMQALPPR |
|  | > 40% | > 80% | 25A10-V2 CAR (other, Chimeric antigen receptor on T cells; signal peptide left out here) EVQLQQSGAELVRPGASVKLSCTASGFNIKDSLIHWVKQRPEQGLEWIGWIDPEDDKTKYAPKFQDKATLTADTSSNTAYLQLSTLTSEDTAIYYCVSRYINYYFAYWGQGTTLTVSSGGGGSGGGGSGGGGSDIVMTQSPSSLTVTAGEKVTMSCKSSQSLLHSGNQRNYLTWYQQKPGQPPKLLIYWASTRESGVPDRFTGSGSGTDFTLTISSVQAEDLAVYYCQNDYDYPYTFGGGTKLEIKTTTPAPRPPTPAPTIASQPLSLRPEACRPAAGGAVHTRGLDFACDIYIWAPLAGTCGVLLLSLVITLYCKRGRKKLLYIFKQPFMRPVQTTQEEDGCSCRFPEEEEGGCELRVKFSRSADAPAYQQGQNQLYNELNLGRREEYDVLDKRRGRDPEMGGKPRRKNPQEGLYNELQKDKMAEAYSEIGMKGERRRGKGHDGLYQGLSTATKDTYDALHMQALPPR |
| > 2 ratio |  |  | 13F11-V3 CAR (other) QIQLVQSGPELKKPGETVKISCKASGYTFKKYGMNWVKQAPGKGLKWMGWINTNTGEPTYAEEFKGRFAFSLETSASTAYLQINNLKNEDTATYFCARWYYGSTPSSYTMDYWGQGTSVTVSSGGGGSGGGGSGGGGSETTVTQSPASLSVATGEKVTIRCITSTDIDDDMNWYQQKPGEPPKVLISEGNTLRPGVPSRFSSSGYGTDFVFTIENTLSEDVADYYCLQSNNMPYTFGGGTKLEIKEPKSPDKTHTCPPCPAPPVAGPSVFLFPPKPKDTLMIARTPEVTCVVVDVSHEDPEVKFNWYVDGVEVHNAKTKPREEQYNSTYRVVSVLTVLHQDWLNGKEYKCKVSNKALPAPIEKTISKAKGQPREPQVYTLPPSRDELTKNQVSLTCLVKGFYPSDIAVEWESNGQPENNYKTTPPVLDSDGSFFLYSKLTVDKSRWQQGNVFSCSVMHEALHNHYTQKSLSLSPGKIYIWAPLAGTCGVLLLSLVITLYCKRGRKKLLYIFKQPFMRPVQTTQEEDGCSCRFPEEEEGGCELRVKFSRSADAPAYQQGQNQLYNELNLGRREEYDVLDKRRGRDPEMGGKPRRKNPQEGLYNELQKDKMAEAYSEIGMKGERRRGKGHDGLYQGLSTATKDTYDALHMQALPPR |
| > 2 ratio |  |  | 16B5-V1 CAR (other) QAYLQQSGAELVRSGASVKMSCKASGYTFTSYNLHWVKQTPGQGLEWIGYIYPGNGGTNYNQKFKGKATLTADTSSSTAYMQISSLTSEDSAVYFCARGGIYYYGSSLDYWGQGTTLTVSSGGGGSGGGGSGGGGSNIVLTQSPASLAVSLGQRATISCRASESVDNYGTTFMYWYQQKPGQPPKLLIYLASNLESGVPARFSGSGSGTDFTLTIDPVEADDAATYYCQQNKEDPWTFGGGTKLEIKGLAVSTISSFFPPGYQIYIWAPLAGTCGVLLLSLVITLYCKRGRKKLLYIFKQPFMRPVQTTQEEDGCSCRFPEEEEGGCELRVKFSRSADAPAYQQGQNQLYNELNLGRREEYDVLDKRRGRDPEMGGKPRRKNPQEGLYNELQKDKMAEAYSEIGMKGERRRGKGHDGLYQGLSTATKDTYDALHMQALPPR |
| > 2 ratio |  |  | 16B5-V2 CAR (other) QAYLQQSGAELVRSGASVKMSCKASGYTFTSYNLHWVKQTPGQGLEWIGYIYPGNGGTNYNQKFKGKATLTADTSSSTAYMQISSLTSEDSAVYFCARGGIYYYGSSLDYWGQGTTLTVSSGGGGSGGGGSGGGGSNIVLTQSPASLAVSLGQRATISCRASESVDNYGTTFMYWYQQKPGQPPKLLIYLASNLESGVPARFSGSGSGTDFTLTIDPVEADDAATYYCQQNKEDPWTFGGGTKLEIKTTTPAPRPPTPAPTIASQPLSLRPEACRPAAGGAVHTRGLDFACDIYIWAPLAGTCGVLLLSLVITLYCKRGRKKLLYIFKQPFMRPVQTTQEEDGCSCRFPEEEEGGCELRVKFSRSADAPAYQQGQNQLYNELNLGRREEYDVLDKRRGRDPEMGGKPRRKNPQEGLYNELQKDKMAEAYSEIGMKGERRRGKGHDGLYQGLSTATKDTYDALHMQALPPR |
| > 2 ratio | > 40% | > 80% | 25A10-V1 CAR (other, signal peptide left out here) EVQLQQSGAELVRPGASVKLSCTASGFNIKDSLIHWVKQRPEQGLEWIGWIDPEDDKTKYAPKFQDKATLTADTSSNTAYLQLSTLTSEDTAIYYCVSRYINYYFAYWGQGTTLTVSSGGGGSGGGGSGGGGSDIVMTQSPSSLTVTAGEKVTMSCKSSQSLLHSGNQRNYLTWYQQKPGQPPKLLIYWASTRESGVPDRFTGSGSGTDFTLTISSVQAEDLAVYYCQNDYDYPYTFGGGTKLEIKGLAVSTISSFFPPGYQIYIWAPLAGTCGVLLLSLVITLYCKRGRKKLLYIFKQPFMRPVQTTQEEDGCSCRFPEEEEGGCELRVKFSRSADAPAYQQGQNQLYNELNLGRREEYDVLDKRRGRDPEMGGKPRRKNPQEGLYNELQKDKMAEAYSEIGMKGERRRGKGHDGLYQGLSTATKDTYDALHMQALPPR |
